From the supplement of paper PMC10724198
± gives the standard deviation of the averaged measurements.

Tests used:
Saccharomyces cerevisiae [1] = assay: protein stability index of tFT-peptide fusion (C-terminal peptide) (PSI (0-1 scale)); higher = more stable (slower turnover)
Procedure: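 MPS profiling in S. cerevisiae of the tFT-X12 degron library: putative degron peptides plus stable controls, 12 aa, fused to the C-terminus of a sfGFP-mCherry timer. Cells are FACS-sorted into 8 mCherry/sfGFP bins and deep-sequenced. PSI runs from 0 (unstable) to 1 (stable). Backgrounds are wild type, das1Δ and doa10Δ at 30 °C, and wild type, das1Δ, cdc34-1 and cdc53-1 at 37 °C; 2-3 technical replicates each.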

Saccharomyces cerevisiae [2] = assay: as above; conditions: genetic background: wild type; temperature: 30 C
[3] = genetic background: cdc34-1, temperature: 37 C
[4] = genetic background: cdc53-1, temperature: 37 C
[5] = genetic background: das1 deletion, temperature: 30 C
[6] = genetic background: das1 deletion, temperature: 37 C
[7] = genetic background: doa10 deletion, temperature: 30 C
[8] = genetic background: wild type, temperature: 30 C
[9] = genetic background: wild type, temperature: 37 C
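Note: PSI is a weighted mean of sequencing reads over stability bins, variants kept only with over 10 reads, mCherry proximal and sfGFP distal, peptide attached via GGGS linker.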

Row | Sequence | protein stability index (Saccharomyces cerevisiae [1]; [3]) | protein stability index (Saccharomyces cerevisiae [1]; [4]) | protein stability index (Saccharomyces cerevisiae [1]; [5]) | protein stability index (Saccharomyces cerevisiae [1]; [6]) | protein stability index (Saccharomyces cerevisiae [1]; [7]) | protein stability index (Saccharomyces cerevisiae [1]; [8]) | protein stability index (Saccharomyces cerevisiae [1]; [9]) | protein stability index (Saccharomyces cerevisiae [2])
1 | FRAKRTVFQRNS | 0.671 ± 0.044 | 0.737 ± 0.039 | 0.668 ± 0.028 | 0.718 ± 0.01 | 0.2585 ± 0.0011 | 0.289 ± 0.0073 | 0.526 ± 0.021 | 0.441 ± 0.012
2 | RYEKIIKQINKQ | 0.609 ± 0.062 | 0.738 ± 0.015 | 0.655 ± 0.037 | 0.7664 ± 0.0071 | 0.13 ± 0.034 | 0.164 ± 0.06 | 0.429 ± 0.011 | 0.268 ± 0.044
3 | SLRCILISTRVK | 0.541 ± 0.02 | 0.601 ± 0.054 | 0.331 ± 0.046 | 0.563 ± 0.0091 | 0.317 ± 0.043 | 0.348 ± 0.021 | 0.531 ± 0.018 | 0.437 ± 0.087
4 | LAFAGRCGLYVC | 0.57 ± 0.064 | 0.679 ± 0.016 | 0.583 ± 0.026 | 0.693 ± 0.0075 | 0.289 ± 0.0035 | 0.291 ± 0.021 | 0.452 ± 0.0079 | 0.362 ± 0.053
5 | HFSCLLIILGFC | 0.275 ± 0.01 | 0.395 ± 0.078 | 0.268 ± 0.04 | 0.448 ± 0.0081 | 0.216 ± 0.005 | 0.267 ± 0.023 | 0.459 ± 0.092 | 0.331 ± 0.026
6 | ISARPFLYSFRP | 0.683 ± 0.01 | 0.7515 ± 0.0074 | 0.643 ± 0.034 | 0.7373 ± 0.0025 | 0.644 ± 0.027 | 0.644 ± 0.041 | 0.71009 ± 0.00017 | 0.0266 ± 0.038
7 | FVVRVVCRLGFF | 0.2226 ± 0.0011 | 0.338 ± 0.014 | 0.218 ± 0.027 | 0.374 ± 0.02 | 0.182 ± 0.0026 | 0.215 ± 0.012 | 0.3396 ± 0.0013 | 0.325 ± 0.015
8 | LVLVLAVFGCHD | 0.397 ± 0.022 | 0.543 ± 0.079 | 0.305 ± 0.03 | 0.563 ± 0.02 | 0.284 ± 0.014 | 0.319 ± 0.036 | 0.477 ± 0.024 | 0.42 ± 0.061
9 | PLPHTPAPPPFP | 0.6774 ± 0.0011 | 0.728 ± 0.0098 | 0.6492 ± 0.0043 | 0.721 ± 0.036 | 0.674 ± 0.034 | 0.676 ± 0.033 | 0.6992 ± 0.0033 | 0.508 ± 0.043
10 | GVGTFRLCVLLV | 0.233 ± 0.004 | 0.2473 ± 0.0021 | 0.273 ± 0.029 | 0.3697 ± 0.0013 | 0.156 ± 0.022 | 0.138 ± 0.0077 | 0.128 ± 0.0081 | 0.197 ± 0.02
11 | FGVFLLWCVLLL | 0.226 ± 0.0076 | 0.297 ± 0.017 | 0.213 ± 0.023 | 0.339 ± 0.013 | 0.217 ± 0.01 | 0.191 ± 0.013 | 0.352 ± 0.075 | 0.274 ± 0.077
12 | RGDWPVFIQVKA | 0.285 ± 0.032 | 0.309 ± 0.04 | 0.262 ± 0.035 | 0.426 ± 0.022 | 0.205 ± 0.022 | 0.255 ± 0.043 | 0.387 ± 0.023 | 0.418 ± 0.05
13 | KLLLTCTFLVFP | 0.448 ± 0.022 | 0.545 ± 0.024 | 0.37 ± 0.032 | 0.555 ± 0.011 | 0.3361 ± 0.003 | 0.369 ± 0.02 | 0.523 ± 0.018 | 0.435 ± 0.0062
14 | WALPRILFLRLT | 0.118 ± 0.074 | 0.157 ± 0.016 | 0.359 ± 0.043 | 0.415 ± 0.0039 | 0.103 ± 0.00013 | 0.0657 ± 0.0088 | 0.0911 ± 0.021 | 0.169 ± 0.028
15 | RFACHDFVVLLC | 0.568 ± 0.023 | 0.605 ± 0.022 | 0.453 ± 0.017 | 0.626 ± 0.026 | 0.172 ± 0.0095 | 0.17 ± 0.029 | 0.303 ± 0.017 | 0.289 ± 0.0045
16 | RYSVIRWMLIVC | 0.0413 ± 0.012 | 0.0475 ± 0.01 | 0.0885 ± 0.021 | 0.13 ± 0.0059 | 0.0358 ± 0.01 | 0.0321 ± 0.0053 | 0.0441 ± 0.0061 | 0.051 ± 0.013
17 | FSYVGFFFLLGF | 0.417 ± 0.051 | 0.471 ± 0.0073 | 0.346 ± 0.021 | 0.494 ± 0.0069 | 0.392 ± 0.049 | 0.352 ± 0.025 | 0.467 ± 0.0053 | 0.414 ± 0.016
18 | PACFPPPSPFAP | 0.643 ± 0.056 | 0.741 ± 0.026 | 0.712 ± 0.015 | 0.7326 ± 0.0022 | 0.718 ± 0.019 | 0.696 ± 0.029 | 0.725 ± 0.022 | 0.44 ± 0.034
19 | LQSVLRGIDCCA | 0.347 ± 0.0089 | 0.375 ± 0.016 | 0.252 ± 0.053 | 0.467 ± 0.0052 | 0.214 ± 0.0044 | 0.266 ± 0.018 | 0.4341 ± 0.0029 | 0.411 ± 0.085
20 | VAVFFGCCVKVG | 0.149 ± 0.027 | 0.18 ± 0.02 | 0.191 ± 0.035 | 0.3258 ± 0.0018 | 0.0877 ± 0.0089 | 0.109 ± 0.024 | 0.141 ± 0.019 | 0.156 ± 0.026

Row | Sequence | protein stability index (Saccharomyces cerevisiae [1]; [3]) | protein stability index (Saccharomyces cerevisiae [1]; [4]) | protein stability index (Saccharomyces cerevisiae [1]; [5]) | protein stability index (Saccharomyces cerevisiae [1]; [6]) | protein stability index (Saccharomyces cerevisiae [1]; [7]) | protein stability index (Saccharomyces cerevisiae [1]; [8]) | protein stability index (Saccharomyces cerevisiae [1]; [9]) | protein stability index (Saccharomyces cerevisiae [2])
21 | ERGSLPRIHHLI | 0.6542 ± 0.0035 | 0.754 ± 0.017 | 0.688 ± 0.085 | 0.736 ± 0.011 | 0.127 ± 0.012 | 0.168 ± 0.034 | 0.31 ± 0.02 | 0.257 ± 0.0082
22 | LVLPAFLLLLYP | 0.2108 ± 0.0018 | 0.183 ± 0.022 | 0.307 ± 0.034 | 0.4212 ± 0.0012 | 0.509 ± 0.023 | 0.309 ± 0.028 | 0.367 ± 0.0037 | 0.4134 ± 0.0013
23 | NKTTKNKKRKLS | 0.467 ± 0.081 | 0.612 ± 0.048 | 0.697 ± 0.027 | 0.656 ± 0.0059 | 0.0924 ± 0.038 | 0.125 ± 0.067 | 0.173 ± 0.011 | 0.159 ± 0.014
24 | LVGWSWAACWLA | 0.522 ± 0.057 | 0.608 ± 0.029 | 0.58 ± 0.024 | 0.712 ± 0.019 | 0.292 | 0.298 ± 0.012 | 0.396 ± 0.012 | 0.408 ± 0.016
25 | LFRLPSPLLFFL | 0.559 ± 0.0067 | 0.611 ± 0.029 | 0.558 ± 0.025 | 0.6643 ± 0.0018 | 0.4911 ± 0.0026 | 0.429 ± 0.025 | 0.53 ± 0.016 | 0.484 ± 0.028
26 | FFLSAFFFFFLF | 0.342 ± 0.04 | 0.346 ± 0.017 | 0.359 ± 0.015 | 0.4409 ± 0.0039 | 0.3669 ± 0.002 | 0.291 ± 0.027 | 0.36913 ± 0.00026 | 0.361 ± 0.0086
27 | NKYNQFKWHINH | 0.624 ± 0.12 | 0.698 ± 0.014 | 0.624 ± 0.026 | 0.742 ± 0.019 | 0.134 ± 0.034 | 0.136 ± 0.0086 | 0.295 ± 0.031 | 0.295 ± 0.0036
28 | VRRSVGGWSKVG | 0.638 ± 0.011 | 0.724 ± 0.023 | 0.636 ± 0.029 | 0.7327 ± 0.0047 | 0.158 ± 0.023 | 0.194 ± 0.037 | 0.505 ± 0.013 | 0.339 ± 0.022
29 | CALCIGTYIRVV | 0.495 ± 0.01 | 0.503 ± 0.014 | 0.385 ± 0.029 | 0.552 ± 0.0098 | 0.367 ± 0.029 | 0.345 ± 0.048 | 0.501 ± 0.031 | 0.451 ± 0.029
30 | HRCLFPLEYLLI | 0.613 ± 0.055 | 0.72 ± 0.015 | 0.551 ± 0.021 | 0.701 ± 0.026 | 0.303 ± 0.022 | 0.344 ± 0.017 | 0.503 ± 0.018 | 0.473 ± 0.052
31 | YVLVVSFLACVF | 0.0628 ± 0.013 | 0.172 ± 0.053 | 0.142 ± 0.03 | 0.266 ± 0.0094 | 0.104 ± 0.021 | 0.13 ± 0.014 | 0.234 ± 0.0088 | 0.192 ± 0.012
32 | DRSPLPAIFVAQ | 0.7 ± 0.028 | 0.746 ± 0.021 | 0.674 ± 0.013 | 0.7428 ± 0.0073 | 0.665 ± 0.013 | 0.643 ± 0.012 | 0.733 ± 0.016 | 0.681 ± 0.047
33 | IVVLCHVFLDLG | 0.048 ± 0.01 | 0.128 ± 0.033 | 0.125 ± 0.048 | 0.222 ± 0.019 | 0.074 ± 0.026 | 0.0933 ± 0.021 | 0.2008 ± 0.00035 | 0.126 ± 0.03
34 | SLYSFRCFFVLF | 0.35 ± 0.027 | 0.461 ± 0.022 | 0.408 ± 0.022 | 0.51 ± 0.019 | 0.182 ± 0.0065 | 0.17 ± 0.012 | 0.235 ± 0.0058 | 0.263 ± 0.032
35 | VFSWLAFGFFCS | 0.647 ± 0.0029 | 0.69 ± 0.012 | 0.61 ± 0.022 | 0.6821 ± 0.0028 | 0.588 ± 0.024 | 0.601 ± 0.023 | 0.642 ± 0.033 | 0.557 ± 0.091
36 | IFWAKRNLVRVT | 0.382 ± 0.0086 | 0.421 ± 0.011 | 0.307 ± 0.029 | 0.478 ± 0.0088 | 0.201 ± 0.0051 | 0.251 ± 0.025 | 0.402 ± 0.0096 | 0.363 ± 0.028
37 | EHIRWLLPKHCL | 0.681 ± 0.027 | 0.73 ± 0.026 | 0.647 ± 0.03 | 0.725 ± 0.03 | 0.2907 ± 0.0018 | 0.314 ± 0.017 | 0.613 ± 0.063 | 0.454 ± 0.041
38 | LGVGVVPEFFVV | 0.659 ± 0.028 | 0.729 ± 0.014 | 0.592 ± 0.022 | 0.723 ± 0.023 | 0.332 ± 0.022 | 0.374 ± 0.022 | 0.527 ± 0.0086 | 0.464 ± 0.0065
39 | APCRVPVLGLVF | 0.249 ± 0.026 | 0.265 ± 0.0055 | 0.235 ± 0.036 | 0.364 ± 0.018 | 0.204 ± 0.016 | 0.257 ± 0.013 | 0.344 ± 0.025 | 0.327 ± 0.034
